“And” between values parts separate entries of the source, which are not always exact repeats. Equal entries are not always repeated.
Legend:
Details in all cases: remark: other sources report otherwise
[1] = target: T1, human arachidonate 12S-Lipoxygenase (12-LOX) (human), P18054; experiment: cryo-EM structure
T1 chain: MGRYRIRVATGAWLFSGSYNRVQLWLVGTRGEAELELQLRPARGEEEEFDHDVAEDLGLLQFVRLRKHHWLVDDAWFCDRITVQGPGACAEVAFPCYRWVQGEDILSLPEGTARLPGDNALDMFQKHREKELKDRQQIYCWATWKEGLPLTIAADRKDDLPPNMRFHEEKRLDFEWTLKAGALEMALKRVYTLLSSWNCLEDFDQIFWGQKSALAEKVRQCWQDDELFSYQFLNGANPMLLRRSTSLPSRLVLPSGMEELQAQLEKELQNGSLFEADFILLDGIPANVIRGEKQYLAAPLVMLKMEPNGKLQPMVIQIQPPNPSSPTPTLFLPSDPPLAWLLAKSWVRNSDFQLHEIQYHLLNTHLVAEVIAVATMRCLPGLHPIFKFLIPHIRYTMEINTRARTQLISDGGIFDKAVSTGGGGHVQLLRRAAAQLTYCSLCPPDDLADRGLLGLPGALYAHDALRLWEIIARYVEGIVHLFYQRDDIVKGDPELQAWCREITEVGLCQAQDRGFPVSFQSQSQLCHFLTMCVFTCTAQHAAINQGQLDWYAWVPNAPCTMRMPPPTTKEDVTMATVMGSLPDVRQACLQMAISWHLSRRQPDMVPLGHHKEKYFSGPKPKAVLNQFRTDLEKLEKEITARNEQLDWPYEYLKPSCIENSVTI

[2] = target: T1, human arachidonate 12S-Lipoxygenase …; experiment: cryo-EM structure
[3] = target: T1, human arachidonate 12S-Lipoxygenase …; experiment: SEC
[4] = target: T1, human arachidonate 12S-Lipoxygenase …; experiment: cryo-EM structure

B1: human arachidonate 12S-Lipoxygenase (12-LOX), P18054 1-663 (enzyme)
chain: T1 chain
For B1, the stoichiometry N [1] was 4, the stoichiometry N [2] was 4 and the stoichiometry N [3] was 2 and 4. The stoichiometry N [4] was 2 and 4 and 6.

— paper doi:10.1101/2023.03.10.532002
